This is an account of results in US20130330328A1 (AstraZeneca / MedImmune, published 2013).

In experiment [1] the target is human CD20 (human) (UniProt P11836). The experiment is described as follows: flow cytometry, direct binding to Raji (Burkitt) cells, labeled goat anti-human secondary.
For experiment [2] the target is unchanged. The experiment is described as follows: flow cytometry, direct binding to Granta-519 (NHL/MCL) cells, labeled goat anti-human secondary. On the technique in general: Flow cytometry measures light scatter and fluorescence of single cells or particles in a stream.
Experiment [3] shares this target. Briefly: cell-based or functional assay.
For experiment [4] the target is unchanged. Briefly: flow cytometry, direct binding to Karpas-422 (NHL) cells, labeled goat anti-human secondary.
For experiment [5] the target is unchanged. Briefly: flow cytometry, direct binding to Nalm-6 (ALL) cells, labeled goat anti-human secondary.
For experiment [6] the target is unchanged. Briefly: flow cytometry, direct binding to Farage (DLCL) cells, labeled goat anti-human secondary.
The target is the same in experiment [7]. Briefly: flow cytometry, direct binding to Namalwa (Burkitt) cells, labeled goat anti-human secondary.
Experiment [8] has the same target. Briefly: flow cytometry, direct binding to JVM-13 (CLL) cells, labeled goat anti-human secondary.
For experiment [9] the target is unchanged. The experiment is described as follows: flow cytometry, direct binding to Toledo (DLCL) cells, labeled goat anti-human secondary.
Experiment [10] concerns the target T1, human CD19 (human, UniProt P15391 20-556).
T1 sequence (looked up): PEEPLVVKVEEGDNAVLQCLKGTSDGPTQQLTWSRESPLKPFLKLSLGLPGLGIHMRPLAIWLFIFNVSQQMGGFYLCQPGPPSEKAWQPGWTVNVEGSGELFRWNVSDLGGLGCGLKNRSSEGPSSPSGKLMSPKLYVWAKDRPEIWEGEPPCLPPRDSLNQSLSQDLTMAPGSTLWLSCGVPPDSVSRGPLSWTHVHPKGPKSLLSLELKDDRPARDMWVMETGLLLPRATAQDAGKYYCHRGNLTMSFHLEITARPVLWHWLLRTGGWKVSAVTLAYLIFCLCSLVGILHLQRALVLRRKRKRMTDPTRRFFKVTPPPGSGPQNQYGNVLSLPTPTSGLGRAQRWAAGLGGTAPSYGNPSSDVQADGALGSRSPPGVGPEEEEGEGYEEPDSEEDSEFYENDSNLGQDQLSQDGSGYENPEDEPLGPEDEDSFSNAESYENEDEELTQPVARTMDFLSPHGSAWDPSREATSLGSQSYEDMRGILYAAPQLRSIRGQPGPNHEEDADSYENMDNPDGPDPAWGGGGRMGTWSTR
The experiment is described as follows: cell-based or functional assay.

human CD20 (human), sequence (P11836 whole entry): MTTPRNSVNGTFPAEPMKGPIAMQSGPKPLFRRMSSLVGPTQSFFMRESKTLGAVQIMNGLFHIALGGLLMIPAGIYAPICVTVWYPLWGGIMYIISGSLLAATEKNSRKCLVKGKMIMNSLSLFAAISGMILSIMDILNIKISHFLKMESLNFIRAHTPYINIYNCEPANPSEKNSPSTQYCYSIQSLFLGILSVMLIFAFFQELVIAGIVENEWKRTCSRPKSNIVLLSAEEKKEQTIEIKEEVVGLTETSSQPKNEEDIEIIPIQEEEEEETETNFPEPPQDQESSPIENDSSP

For the molecule rituximab (antibody), in [1], the MFI at 1 µg/ml was determined as 823 MFI. Further, the MFI at 1 µg/ml in experiment [2] came out at 403 MFI. In [3], this molecule came in with a % max. cell kill at 10 ug/ml, DB (DLCL) cells of 46%; a % max. cell kill at 10 ug/ml, Daudi (Burkitt) cells of 51%; a % max. cell kill at 10 ug/ml, Farage (DLCL) cells of 54%; a % max. cell kill at 10 ug/ml, JVM-2 (CLL) cells of 49%. In [3], this molecule returned a % max. cell kill at 10 ug/ml, JVM-13 (CLL) cells of 50%; a % max. cell kill at 10 ug/ml, Karpas-422 (NHL) cells of 5%; a % max. cell kill at 10 ug/ml, MeC2 (CLL) cells of 42%; a % max. cell kill at 10 ug/ml, Nalm-6 (ALL) cells of 14%. Besides, in experiment [3], the % max. cell kill at 10 ug/ml, Namalwa (Burkitt) cells was 7%; the % max. cell kill at 10 ug/ml, Raji (Burkitt) cells was 40%; the % max. cell kill at 10 ug/ml, Toledo (DLCL) cells was 55%; the ADCC EC50 [ng/ml], DB (DLCL) cells was 0.24 ng/mL. In [3], the ADCC EC50 [ng/ml], Daudi (Burkitt) cells is 0.041 ng/mL; the ADCC EC50 [ng/ml], Farage (DLCL) cells came to 0.0113 ng/mL; the ADCC EC50 [ng/ml], JVM-2 (CLL) cells was 0.0586 ng/mL; the ADCC EC50 [ng/ml], JVM-13 (CLL) cells is 0.0317 ng/mL. In experiment [3], this molecule yielded an ADCC EC50 [ng/ml], Karpas-1106P cells of 0.0137 ng/mL; an ADCC EC50 [ng/ml], MeC2 (CLL) cells of 0.007 ng/mL; an ADCC EC50 [ng/ml], RL (NHL) cells of 0.0296 ng/mL; an ADCC EC50 [ng/ml], Raji (Burkitt) cells of 0.008 ng/mL. In experiment [3], this molecule came in with an ADCC EC50 [ng/ml], Toledo (DLCL) cells of 0.0319 ng/mL and an EC50, FACS-based ADCC assay with patient CLL samples of 639 to 682 pM. The MFI at 1 µg/ml in [4] was determined as 45 MFI. Also, the MFI at 1 µg/ml in experiment [5] turned out to be 26 MFI. The molecule further returned an MFI at 1 µg/ml in [6] of 581 MFI. For the same molecule, the MFI at 1 µg/ml in [7] is 298 MFI. For the same molecule, the MFI at 1 µg/ml in [8] is 60 MFI. In experiment [9], this molecule yielded an MFI at 1 µg/ml of 312 MFI.

B1: afucosylated anti-CD19 mAb 16C4 (16C4-afuc) (antibody, IgG1, V domains shown)
VH: EVQLVESGGGLVQPGGSLRLSCAASGFTFSSSWMNWVRQAPGKGLEWVGRIYPGDGDTNYNVKFKGRFTISRDDSKNSLYLQMNSLKTEDTAVYYCARSGFITTVRDFDYWGQGTLVTVSS
VL: EIVLTQSPDFQSVTPKEKVTITCRASESVDTFGISFINWFQQKPDQSPKLLIHEASNQGSGVPSRFSGSGSGTDFTLTINSLEAEDAATYYCQQTKEVPFTFGGGTKVEIK
On to B1, for which, in experiment [10], the “ADCC EC50 [ng/ml], Daudi (Burkitt) cells” value is 0.0031 ng/mL; the “ADCC EC50 [ng/ml], Farage (DLCL) cells” value stood at 0.0141 ng/mL; the “ADCC EC50 [ng/ml], JVM-2 (CLL) cells” value stood at 0.188 ng/mL; the “ADCC EC50 [ng/ml], JVM-13 (CLL) cells” value was 0.0368 ng/mL. Further, in [10], the “ADCC EC50 [ng/ml], Karpas-422 (NHL) cells” value was found to be 0.0181 ng/mL; the “ADCC EC50 [ng/ml], Karpas-1106P cells” value was found to be 0.009 ng/mL; the “ADCC EC50 [ng/ml], MeC2 (CLL) cells” value was determined as 0.0039 ng/mL; the “ADCC EC50 [ng/ml], Nalm-6 (ALL) cells” value stood at 0.0199 ng/mL. Besides, in experiment [10], the “ADCC EC50 [ng/ml], Namalwa (Burkitt) cells” value stood at 0.012 ng/mL; the “ADCC EC50 [ng/ml], Oci-LY19 (DLCL) cells” value was determined as 0.0163 ng/mL; the “ADCC EC50 [ng/ml], RL (NHL) cells” value was 0.0073 ng/mL; the “ADCC EC50 [ng/ml], Raji (Burkitt) cells” value worked out at 0.003 ng/mL. The “ADCC EC50 [ng/ml], Toledo (DLCL) cells” value in experiment [10] is 0.0075 ng/mL.
